The source of these data is patent US12358960B2, “Selective targeting of ubiquitin- and ubiquitin-like E1-activating enzymes by structurally-stabilized peptides” (Dana-Farber Cancer Institute, Inc., priority 2019, dated 2025).

Entries after “also recorded” stand apart in the source; their conditions may differ. Bridge positions count the residues as written; N and C are the ends. Square brackets hold non-standard residues; d marks the D form. Ends that are not written are not given here. * marks the point of attachment. Biotin = O=C1N[C@H]2[C@H](CS[C@H]2CCCCC(=O)*)N1; R8 = C=CCCCCCC[C@@](C)(N)C(=O)O; S5 = C=CCCC[C@](C)(N)C(=O)O; Nle = CCCC[C@H](N)C(=O)O; Dab = NCC[C@H](N)C(=O)O; Acryloyl = C=CC(=O)*

A short description of series [1]: Circular dichroism, α-helicity. The conditions noted are these: in solution. It is filed as physicochemical. As to the method: Assays to Determine α-Helicity: Compounds are dissolved in an aqueous solution (e.g., 5 mM potassium phosphate solution at pH 7, or distilled H2O, to concentrations of 25-50 μM). Circular dichroism (CD) spectra are obtained on a spectropolarimeter (e.g., Jasco J-710, Aviv) using standard measurement parameters (e.g., temperature, 20° C.; wavelength, 190-260 nm; step resolution, 0.5 nm; speed, 20 nm/sec; accumulations, 10; response, 1 sec; bandwidth, 1 nm; path length, 0.1 cm). The α-helical content of each peptide is calculated by dividing the mean residue ellipticity by the reported value for a model helical decapeptide (Yang et al., Methods Enzymol. 130:208 (1986)).
Circular Dichroism: Acetylated peptides were dissolved in 10% (vol/vol) acetonitrile in water for circular dichroism analyses, performed on an Aviv Biomedical spectrophotometer, as reported (see Bird et. al., Methods in Enzymol., 446:369-386 (2008)).

The target in series [2] is T1, Human E1 activating enzyme UBA1 (Homo sapiens, UniProt P22314).
T1 sequence (P22314 1-1058): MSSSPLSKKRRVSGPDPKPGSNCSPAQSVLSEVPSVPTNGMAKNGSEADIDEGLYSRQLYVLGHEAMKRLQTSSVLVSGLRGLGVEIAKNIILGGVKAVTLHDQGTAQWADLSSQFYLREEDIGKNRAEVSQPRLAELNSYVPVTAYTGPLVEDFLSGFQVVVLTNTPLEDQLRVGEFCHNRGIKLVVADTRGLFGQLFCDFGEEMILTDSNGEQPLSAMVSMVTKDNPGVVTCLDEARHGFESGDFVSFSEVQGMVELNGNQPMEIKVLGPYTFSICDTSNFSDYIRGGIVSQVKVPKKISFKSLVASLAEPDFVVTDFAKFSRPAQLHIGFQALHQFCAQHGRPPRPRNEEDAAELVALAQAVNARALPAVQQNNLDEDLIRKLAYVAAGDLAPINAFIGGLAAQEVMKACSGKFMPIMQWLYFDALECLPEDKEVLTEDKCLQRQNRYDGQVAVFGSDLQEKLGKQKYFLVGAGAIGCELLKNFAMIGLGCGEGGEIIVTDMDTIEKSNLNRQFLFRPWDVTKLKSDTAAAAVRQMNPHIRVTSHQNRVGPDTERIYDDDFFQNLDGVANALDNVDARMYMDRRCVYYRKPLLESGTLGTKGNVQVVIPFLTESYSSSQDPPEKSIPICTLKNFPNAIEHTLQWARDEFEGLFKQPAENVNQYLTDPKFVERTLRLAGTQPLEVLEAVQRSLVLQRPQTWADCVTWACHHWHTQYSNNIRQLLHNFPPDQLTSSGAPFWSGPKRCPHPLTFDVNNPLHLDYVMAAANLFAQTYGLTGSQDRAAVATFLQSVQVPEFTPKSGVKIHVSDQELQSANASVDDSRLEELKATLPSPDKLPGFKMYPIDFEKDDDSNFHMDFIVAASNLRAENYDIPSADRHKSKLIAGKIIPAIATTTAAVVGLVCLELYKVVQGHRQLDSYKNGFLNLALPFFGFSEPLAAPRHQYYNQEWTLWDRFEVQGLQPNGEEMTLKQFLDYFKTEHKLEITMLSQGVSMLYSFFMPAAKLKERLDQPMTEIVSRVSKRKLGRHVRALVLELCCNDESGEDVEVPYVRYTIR
Put plainly: In vitro enzyme inhibition assay: E1-mediated ubiquitin thioester transfer to E2 (band shift, silver stain). The format is biochemical. The conditions noted are these: for inhibition of E1-mediated thioester transfer to E2, dose response: range of peptide concentrations; for inhibition of E1-mediated thioester transfer to E2 by mutant / additional stapled peptides: SAH-UBE2A-11 variants and controls, Examples 4, 7, 13; for inhibition of E1-mediated thioester transfer to E2 by warhead-bearing stapled peptides: Example 8. As to the method: In vitro Enzyme Inhibition Assays: To assess an E2 hA peptide's inhibition of an E1 enzyme, an in vitro enzyme inhibition assay can be used, for example. The in vitro enzyme inhibition assay measures an E2 hA peptide's ability to inhibit conjugation of ubiquitin to E2 by E1. Briefly, recombinant E1 (e.g., UBA1), recombinant E2 (e.g., UBE2A), ubiquitin, and Mg-ATP are combined in the presence of an E2 hA peptide or vehicle control (e.g., 1% DMSO) for a period of time (e.g., 30 minutes) at room temperature in a buffer containing, e.g., 50 mM NaCl, 50 mM HEPES pH 7.5. Control reaction includes no E1. Reactions are quenched by addition of SDS-containing loading dye and samples are resolved on a gel (e.g., a 4-12% Bis-Tris protein gel) under nonreducing conditions. Proteins on the gel are visualized via, e.g., silver stain. Conjugation of ubiquitin to E2 by E1 is monitored by conversion of free E2 (˜17 kDa) to E2˜ubiquitin conjugate (˜26 kDa).
Control reaction included no E1 enzyme. Reactions were quenched by addition of SDS-containing loading dye and samples were resolved on a 4-12% Bis-Tris protein gel under nonreducing conditions. Proteins were visualized via silver stain. Conjugation of ubiquitin to E2 by E1 was monitored by conversion of free E2 (17 kDa) to E2˜ubiquitin conjugate (26 kDa).
The ability of the peptides to inhibit E1-mediated thioester transfer to E2 was evaluated. Human E1 activating enzyme UBA1 (10 nM), UbcH5b E2 enzyme (150 nM), ubiquitin (1 μM), and Mg-ATP (20 μM) were combined in the presence of stapled peptide at a range of concentrations or vehicle control (1% DMSO) for 45 minutes at room temperature in buffer containing 50 mM NaCl, 50 mM HEPES, 1 mM TCEP pH 7.5. Reactions were quenched by addition of SDS-containing loading dye and samples were resolved on a 4-12% Bis-Tris protein gel under nonreducing conditions. Proteins were visualized via silver stain. Conjugation of ubiquitin to E2 by E1 was monitored by conversion of free E2 (17 kDa) to E2˜ubiquitin conjugate (26 kDa). Inhibition percentage was calculated from densitometry of silver stain images.
Streptavidin-biotin pull-down assays: For recombinant protein pull-downs, 10 pmol recombinant human UBA1 was incubated with 5 nmol C-terminally biotinylated SAH-UBE2A or DMSO vehicle control in a total volume of 1 mL binding buffer (50 mM NaCl, 20 mM HEPES, pH 7.4, 5 mM DTT) for 1.5 hours at 4° C. 30 μL of pre-equilibrated streptavidin agarose beads were then added and incubated for an additional 1.5 hours at 4° C. The beads were pelleted by centrifugation and washed three times with NP-40 buffer (20 mM HEPES, pH 7.4, 50 mM NaCl, 5 mM DTT, 0.5% [v/v] NP-40) before eluting the protein sample from the beads by heating at 70° C. for 10 min in 3×SDS loading buffer. Samples were subjected to electrophoresis and silver staining (Pierce 24612). For pull-down from cellular lysates, 0.75 mg HeLa cell lysate was incubated with 5 nmol C-terminally biotinylated SAH-UBE2A or DMSO vehicle control in a total volume of 1 mL binding buffer (50 mM NaCl, 20 mM HEPES, pH 7.4, 5 mM DTT) containing protease-phosphatase inhibitor cocktail for 2 hours at 4° C. 30 μL of pre-equilibrated streptavidin agarose beads (ThermoFisher 20357) were then added and incubated for an additional 1.5 hours at 4° C. The beads were pelleted by centrifugation and washed three times with NP-40 buffer (20 mM HEPES, pH 7.4, 50 mM NaCl, 5 mM DTT, 0.5% [v/v] NP-40) before eluting the protein sample from the beads by heating at 70° C. for 10 min in 3×SDS loading buffer. Proteins were separated by SDS-PAGE gel electrophoresis and detected by western blot against UBE1 (Abcam ab34711). In vitro Enzyme Inhibition Assays: Recombinant human E1 activating enzyme UBA1 (10 nM), E2 enzyme (150 nM), ubiquitin (1 μM), and Mg-ATP (20 μM) are combined in the presence of peptide or vehicle control (1% DMSO) for 45 minutes at room temperature in buffer containing 50 mM NaCl, 50 mM HEPES pH 7.5. Control reaction includes no E1 enzyme. […]

For the substance “BPSSASRQLLRKQLKEIQZ ([Nle]PSSASRQLLRKQLKEIQK(Biotin)) [Ubc15-1, unmodified Ubc15 peptide, Z is biotinylated lysine]”, in series [1], the “helicity / helical content” value is recorded as 19%. BPSSAX1RQLLRKX2LKEIQ [SEQ ID NO:50]: the “inhibition of E1-mediated ubiquitin transfer to E2 (conversion of E2 to E2~ubiquitin)” value in series [2] (100 μM peptide, UbcH5b E2 enzyme, 45 minutes, staple scan) is given as “best in this panel at inhibiting E1-mediated ubiquitin transfer to E2”. The “inhibition of E1-mediated thioester transfer to E2, dose response” value in series [2] (UbcH5b E2 enzyme, 45 minutes, listed as SAH-Ubc15-11) is “inhibited E1-mediated thioester transfer to E2 in a dose-dependent manner; also recorded: dose-dependently inhibit E1-mediated thioester transfer to E2”. The “helicity / helical content” value in series [1] worked out at 51%. On to “BSTPARRRLBRDFKRLQ ([Nle]STPARRRL[Nle]RDFKRLQ-NH2; not fully specified (N-terminus)) [UBE2A, unmodified (unstapled) UBE2A peptide, B is norleucine]”, for which the “inhibition of E1-mediated thioester transfer to E2 by mutant / additional stapled peptides” value in series [2] is reported as “no inhibitory activity; also recorded: negligible inhibitory activity”. Also, the “helicity / helical content” value in series [1] is on record as 21%. Consider “BSTPX1RRRLARX2FKRLQ (Ac-[Nle]STP[R8]RRRLAR[S5]FKRLQ-NH2; staple 5-12) [SEQ ID NO:820]”, for which the “inhibition of E1-mediated thioester transfer to E2 by mutant / additional stapled peptides” value in series [2] was “impair the inhibitory activity of SAH-UBE2A-11”.

In the case of “BSTPX1RRRLBRX2FJRLQ ([Nle]STP[R8]RRRL[Nle]R[S5]F[Dab](Acryloyl)RLQ; staple 5-12; not fully specified (N-terminus, C-terminus); printed as BSTPX1RRRLBRX2FJRLQ) [SEQ ID NO:752, warhead-bearing stapled peptide, J acrylamide-bearing Dab at A11, staple A2 and A9]”, the “inhibition of E1-mediated thioester transfer to E2 by warhead-bearing stapled peptides” value (from here on “inhibition … by warhead-bearing stapled peptides”) in series [2] is “inhibited E1-mediated thioester transfer to E2”. Consider “BSTPX1RRRLJRX2FKRLQ ([Nle]STP[R8]RRRL[Dab](Acryloyl)R[S5]FKRLQ; staple 5-12; not fully specified (N-terminus, C-terminus); printed as BSTPX1RRRLJRX2FKRLQ) [SEQ ID NO:680, warhead-bearing stapled peptide, J acrylamide-bearing Dab at A7, staple A2 and A9]”, for which the “inhibition … by warhead-bearing stapled peptides” value in series [2] is reported as “inhibited E1-mediated thioester transfer to E2”.

With “BX1LKRIHJX2LNDLARD ([Nle][R8]LKRIH[Dab](Acryloyl)[S5]LNDLARD; staple 2-9; not fully specified (N-terminus, C-terminus); printed as BX1LKRIHJX2LNDLARD) [SEQ ID NO:691, warhead-bearing stapled peptide, J acrylamide-bearing Dab at A8, staple A2 and A9]”, the “inhibition … by warhead-bearing stapled peptides” value in series [2] is “did not inhibit E1-mediated thioester transfer to E2”.

For “BX1LKRIHKX2LJDLARD ([Nle][R8]LKRIHK[S5]L[Dab](Acryloyl)DLARD; staple 2-9; not fully specified (N-terminus, C-terminus); printed as BX1LKRIHKX2LJDLARD) [SEQ ID NO:727, warhead-bearing stapled peptide, J acrylamide-bearing Dab at A11, staple A2 and A9]”, the “inhibition … by warhead-bearing stapled peptides” value in series [2] is listed as “inhibited E1-mediated thioester transfer to E2”.

Regarding BX1LKRIHKX2LNDLARD [SAH-UBE2D2-11], the “inhibition of E1-mediated thioester transfer to E2, dose response” value in series [2] (UbcH5b E2 enzyme, 45 minutes) was “inhibited E1-mediated thioester transfer to E2 in a dose-dependent manner; also recorded: dose-dependently inhibit E1-mediated thioester transfer to E2”. Regarding “X1ALKRIHX2ELJDLARD ([R8]ALKRIH[S5]EL[Dab](Acryloyl)DLARD; staple 1-8; not fully specified (N-terminus, C-terminus); printed as X1ALKRIHX2ELJDLARD) [SEQ ID NO:763, warhead-bearing stapled peptide, J acrylamide-bearing Dab at A11, staple A1 and A8]”, the “inhibition … by warhead-bearing stapled peptides” value in series [2] was “did not inhibit E1-mediated thioester transfer to E2”.
